T1: NF-κB p50 subunit (endogenous, HEK-293T cells) (UniProt P19838 1-433, limits assumed)
T1 construct: Endogenous protein co-precipitated with HA-IκBα from transfected HEK-293T cells; also called p50 NF-κB
T1 sequence (looked up): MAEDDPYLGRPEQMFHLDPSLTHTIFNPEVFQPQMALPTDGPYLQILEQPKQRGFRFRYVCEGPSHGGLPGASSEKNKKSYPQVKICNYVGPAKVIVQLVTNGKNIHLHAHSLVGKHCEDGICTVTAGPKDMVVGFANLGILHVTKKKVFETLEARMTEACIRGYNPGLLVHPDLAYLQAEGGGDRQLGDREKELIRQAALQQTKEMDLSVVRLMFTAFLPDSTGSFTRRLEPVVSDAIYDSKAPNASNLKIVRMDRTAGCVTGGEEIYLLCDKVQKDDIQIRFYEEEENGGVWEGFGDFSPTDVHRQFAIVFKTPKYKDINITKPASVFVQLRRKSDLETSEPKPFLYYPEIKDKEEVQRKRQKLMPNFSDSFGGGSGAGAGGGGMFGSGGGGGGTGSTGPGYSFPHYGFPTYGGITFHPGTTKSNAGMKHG


What was measured:
[1] = biological target: T2, NF-κB p65 subunit (endogenous, HEK-293T cells) (UniProt Q04206 1-551); experiment: PD and Co-IP
T2 construct: Endogenous protein co-precipitated with HA-IκBα from transfected HEK-293T cells; also called p65/NF-κB; p65/RelA
T2 sequence (Q04206 whole entry): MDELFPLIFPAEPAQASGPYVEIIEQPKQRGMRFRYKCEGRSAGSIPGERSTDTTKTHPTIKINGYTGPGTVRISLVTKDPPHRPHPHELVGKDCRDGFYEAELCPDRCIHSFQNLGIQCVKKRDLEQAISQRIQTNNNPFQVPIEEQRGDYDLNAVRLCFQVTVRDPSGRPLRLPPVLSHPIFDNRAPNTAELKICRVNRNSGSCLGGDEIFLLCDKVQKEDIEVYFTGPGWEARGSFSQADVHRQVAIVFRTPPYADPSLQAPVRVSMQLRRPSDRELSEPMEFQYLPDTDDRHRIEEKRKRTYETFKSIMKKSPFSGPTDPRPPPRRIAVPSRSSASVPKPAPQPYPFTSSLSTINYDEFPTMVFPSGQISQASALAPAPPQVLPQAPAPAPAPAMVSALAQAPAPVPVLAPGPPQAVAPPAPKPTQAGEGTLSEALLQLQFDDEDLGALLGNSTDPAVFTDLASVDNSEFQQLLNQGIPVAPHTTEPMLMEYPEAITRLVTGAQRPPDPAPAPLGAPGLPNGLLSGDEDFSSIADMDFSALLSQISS

[2] = biological target: T1, NF-κB p50 subunit (endogenous, HEK-293T …); experiment: PD and Co-IP
[3] = biological target: T2, NF-κB p65 subunit (endogenous, HEK-293T …); experiment: Co-IP of single point mutants, WB
[4] = biological target: T1, NF-κB p50 subunit (endogenous, HEK-293T …); experiment: Co-IP of single point mutants, WB
[5] = biological target: T2, NF-κB p65 subunit (endogenous, HEK-293T …); experiment: Co-IP from transfected HEK-293T cells, WB
[6] = biological target: T1, NF-κB p50 subunit (endogenous, HEK-293T …); experiment: Co-IP from transfected HEK-293T cells, WB

| Binder | binding result [3] | binding result [4] | other results |
| --- | --- | --- | --- |
| IκBα HEE84-86AAA / SOF^NF-κB (SEQ ID NO: 1) (other, Compose mutant of IκBα, expressed in HEK-293T cells; also called IκBα SOF^NF-κB; H84, E85, E86 to A; not shown: HA tag) MFQAAERPQEWAMEGPRDGLKKERLLDDRHDSGLDSMKDEEYEQMVKELQEIRLEPQEVPRGSEPWKQQLTEDGDSFLHLAIIAAAKALTMEVIRQVKGDLAFLNFQNNLQQTPLHLAVITNQPEIAEALLGAGCDPELRDFRGNTPLHLACEQGCLASVGVLTQSCTTPHLHSILKATNYNGHTCLHLASIHGYLGIVELLVSLGADVNAQEPCNGRTALHLAVDLQNPDLVSLLLKCGADVNRVTYQGYSPYQLTWGRPSTRIQQQLGQLTLENLQMLPESEDEESYDTESEFTEFTEDELPYDDCVFGGQRLTL |  |  | binding result [1]: binds; binding result [2]: binds |
| IκBα D75A / SOF^PRC2 (SEQ ID NO: 2) (other, Single point mutant of IκBα; also called IκBα SOF^PRC2; IkBa D75A; not shown: HA tag) MFQAAERPQEWAMEGPRDGLKKERLLDDRHDSGLDSMKDEEYEQMVKELQEIRLEPQEVPRGSEPWKQQLTEDGASFLHLAIIHEEKALTMEVIRQVKGDLAFLNFQNNLQQTPLHLAVITNQPEIAEALLGAGCDPELRDFRGNTPLHLACEQGCLASVGVLTQSCTTPHLHSILKATNYNGHTCLHLASIHGYLGIVELLVSLGADVNAQEPCNGRTALHLAVDLQNPDLVSLLLKCGADVNRVTYQGYSPYQLTWGRPSTRIQQQLGQLTLENLQMLPESEDEESYDTESEFTEFTEDELPYDDCVFGGQRLTL | no binding | no binding |  |
| IκBα N108A / SOF^PRC2 (SEQ ID NO: 3) (other, Single point mutant of IκBα; also called IκBα SOF^PRC2 mutant N108A; IkBa N108A; not shown: HA tag) MFQAAERPQEWAMEGPRDGLKKERLLDDRHDSGLDSMKDEEYEQMVKELQEIRLEPQEVPRGSEPWKQQLTEDGDSFLHLAIIHEEKALTMEVIRQVKGDLAFLNFQANLQQTPLHLAVITNQPEIAEALLGAGCDPELRDFRGNTPLHLACEQGCLASVGVLTQSCTTPHLHSILKATNYNGHTCLHLASIHGYLGIVELLVSLGADVNAQEPCNGRTALHLAVDLQNPDLVSLLLKCGADVNRVTYQGYSPYQLTWGRPSTRIQQQLGQLTLENLQMLPESEDEESYDTESEFTEFTEDELPYDDCVFGGQRLTL | no binding | no binding |  |
| IκBα compose mutant H84, E85, E86, N108, Q112 to A (other, not shown: HA tag) MFQAAERPQEWAMEGPRDGLKKERLLDDRHDSGLDSMKDEEYEQMVKELQEIRLEPQEVPRGSEPWKQQLTEDGDSFLHLAIIAAAKALTMEVIRQVKGDLAFLNFQANLQATPLHLAVITNQPEIAEALLGAGCDPELRDFRGNTPLHLACEQGCLASVGVLTQSCTTPHLHSILKATNYNGHTCLHLASIHGYLGIVELLVSLGADVNAQEPCNGRTALHLAVDLQNPDLVSLLLKCGADVNRVTYQGYSPYQLTWGRPSTRIQQQLGQLTLENLQMLPESEDEESYDTESEFTEFTEDELPYDDCVFGGQRLTL |  |  | binding result [5]: no binding; binding result [6]: no binding |

— EP4239334A1 (Consorcio Centro de Investigación Biomédica en Red (CIBER), dated 2023)
